Source: article PMC3585325
pKd: −log10 of the molar value.

Biological target: recombinant human IGF2R extracellular domains 1–15, biotinylated CD4 (domains 3 and 4) fusion protein (human) (UniProt P11717)
Experiment: SPR; BIAcore T200; 1800 RU biotinylated IGF2R fusion protein immobilised on a streptavidin-loaded CM5 chip; IGF2 256 to 0.125 nM injected for 200 s at 40 µL/min, 25°C, HBS-EP buffer; kinetic fit to a 1:1 binding model and steady state analysis

Substance | pKd
recombinant human IGF2 (ligand) | 8.40 to 9.00
recombinant mouse IGF2 (ligand) | 8.22 to 8.52
